Experimental data from publication PMC6638984, “Increased association between Epstein-Barr virus EBNA2 from type 2 strains and the transcriptional repressor BS69 restricts EBNA2 activity” (PLoS Pathogens, 2019).
Where a chain is given by its changes, count along the chain named. In names and notes the source's numbering stands. Where two headings read alike, the source gives them in different places.

T1: BS69CC-MYND (BS69 amino acid 480–602, CC-MYND domain) (Homo sapiens, UniProt Q15326)
T1 construct: The BS69 CC-MYND domain (amino acids 480–602) was amplified from pCI-BS69; GST (N, cleaved yes); 6xHis (N, cleaved yes); made in house; host or cells: E. coli Rosetta 2 (DE3) pLysS
T1 sequence (Q15326 480-602): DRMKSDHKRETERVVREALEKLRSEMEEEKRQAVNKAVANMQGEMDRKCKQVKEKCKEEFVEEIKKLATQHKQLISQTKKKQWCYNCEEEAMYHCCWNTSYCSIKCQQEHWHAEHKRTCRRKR

B1: EBNA2_348-422 SD + m3 T1: type 2 EBNA2 polypeptide 348–422 containing both the SD and motif 3 (PSIDP) mutations (protein)
chain: SMPQLSPVVSLHQGQGPENSPTPGPSTAGPVCRVTPSATPDISPIHEPESSDSEEPPFLFPDDWYPPSIDPAELD
modifications: left off: His6, N-terminal, cleaved
notes: type 2 EBNA2 polypeptide 348–422 containing both the SD and motif 3 (PSIDP) mutations
B2: T2 EBNA2_348-422 SD: type 2 EBNA2 polypeptide 348–422 with an S409D mutation (protein)
chain: B1 chain with S68T, I69L, D70E
modifications: left off: His6, N-terminal, cleaved
notes: type 2 EBNA2 polypeptide 348–422 with an S409D mutation
B3: T2 EBNA2_348-422 m3 T1: T2 EBNA2_348-422 with motif 3 PTLEP replaced with the type 1 sequence PSIDP (protein)
chain: B1 chain with D62S
modifications: left off: His6, N-terminal, cleaved
B4: T2 EBNA2_348-422: type 2 EBNA2 polypeptide containing motif 1, 2 and 3, amino acids 348–422 (protein)
chain: B1 chain with D62S, S68T, I69L, D70E
modifications: left off: His6, N-terminal, cleaved
B5: T2 EBNA2_348-422 motif 3 mt: T2 EBNA2_348-422 with motif 3 mutated from PTLEP to ATAEA (protein)
chain: B1 chain with D62S, P67A, S68T, I69A, D70E, P71A
modifications: left off: His6, N-terminal, cleaved
notes: T2 EBNA2_348-422 with motif 3 mutated from PTLEP to ATAEA
B6: EBNA2_348-422 SD + m3 mt: type 2 EBNA2 polypeptide 348–422 containing both the SD and motif 3 (ATAEA) mutations (protein)
chain: B1 chain with P67A, S68T, I69A, D70E, P71A
modifications: left off: His6, N-terminal, cleaved
notes: type 2 EBNA2 polypeptide 348–422 containing both the SD and motif 3 (ATAEA) mutations
B7: T2 EBNA2_348-412: type 2 EBNA2 polypeptide, amino acids 348–412, expressed and purified from E.coli (protein)
chain: SMPQLSPVVSLHQGQGPENSPTPGPSTAGPVCRVTPSATPDISPIHEPESSDSEEPPFLFPSDWY
modifications: left off: His6, N-terminal, cleaved
notes: type 2 EBNA2 polypeptide, amino acids 348–412, expressed and purified from E.coli

Target: T1, BS69CC-MYND (BS69 amino acid 480–602, CC-MYND domain)
Experiment: Isothermal titration calorimetry (ITC) of EBNA2 peptides and polypeptides binding to BS69CC-MYND
Conditions: mean ± SD of 3 independent experiments; for Kd: pH 7.5, 29 injections of 1.3 μl 0.3 mM EBNA2 polypeptide into 0.1 mM BS69CC-MYND; for -TΔS, event 1, two-site model / -TΔS, event 2, two-site model / n value, event 1, two-site model / n value, event 2, two-site model / ΔG, event 1, two-site model / ΔG, event 2, two-site model / ΔH, event 1, two-site model / ΔH, event 2, two-site model: 29 injections
Excerpt: We hypothesised that the impaired gene activation and growth maintenance properties of type 2 EBNA2 may be the result of increased binding to BS69 as a result of the aspartate to serine amino acid difference adjacent to BS69 binding motif 2. […] We used isothermal titration calorimetry (ITC) to determine the affinity of peptide binding to the C-terminal region of BS69 (amino acid 480–602) comprising the CC-MYND domain that we expressed and purified from E.coli (Fig 1B and 1C). […] The difference in binding between type 1 and type 2 EBNA2 motif 2 peptides could be influenced by both the aspartate to serine change and differences in two other amino acids present in the sequence (Fig 1B and 1C).
The BS69 CC-MYND domain (amino acids 480–602) was amplified from pCI-BS69 containing the full length human BS69 sequence (gift from Dr Stéphane Ansieau) and cloned using SLIC into the SmaI and HindIII sites of pET49b+ to generate a construct expressing an N-terminal GST-6x Histidine tag BS69CC-MYND fusion protein (S2 Table).
Four commercially synthesized peptides (Peptide Synthetics) were used for ITC. These included BS69 binding motif 2 of type 1 EBNA2 (435–445) or type 2 EBNA2 (402–412) and putative BS69 binding motif 3 of type 1 EBNA2 (445–455) or type 2 EBNA2 (412–422).
Frozen protein was quickly thawed using running water and dialysed overnight at 4°C using Slide-A-Lyzer MINI Dialysis Units (Thermo Scientific) against ITC buffer (20mM Tris-HCl, 100mM NaCl and 1mM TCEP, pH 7.5). The next day, protein samples were centrifuged at 13000 rpm for 10 mins at 4 °C and the concentration was determined by NanoDrop spectroscopy (NanoDrop Technologies) with their respective molecular weights and extinction coefficients. EBNA2 peptides (1mM) and polypeptides (type 1, 0.3 mM and type 2, 0.6 mM) were titrated against BS69CC-MYND (0.1mM) at 25°C using a MicroCalTM iTC200 instrument (Malvern). For peptides, 13 x 3.0 μl injections were used for titration. For EBNA2 polypeptides 19 x 2.0 μl or 29 x 1.3 μl injections were used for titration. ITC data were corrected for non-specific heat and analysed using MicroCal Origin 7.0. The experiments were performed in triplicate alongside a control experiment with no BS69CC-MYND (buffer only in the cell). All polypeptides were used within 24 hrs of dialysis into ITC buffer.

[1] = 25°C, read-out: KD1 (binding event 1), two-site (two event) binding model
[2] = 25°C, read-out: KD2 (binding event 2), two-site (two event) binding model
[3] = 25°C, pH 7.5, peptides 13 injections, polypeptides 19 injections

| Molecule | Kd [1] | Kd [2] | -TΔS, event 1, two-site model | -TΔS, event 2, two-site model | n value, event 1, two-site model | n value, event 2, two-site model | ΔG, event 1, two-site model | ΔG, event 2, two-site model | ΔH, event 1, two-site model | ΔH, event 2, two-site model | -TΔS, one-site model [3] | ΔG, one-site model [3] | ΔH, one-site model [3] | -TΔS, one-site model (25°C, pH 7.5, peptides 13 injections, polypeptides 19 injections, listed as T2 EBNA2 348-422) | -TΔS, one-site model (25°C, pH 7.5, peptides 13 injections, polypeptides 19 injections, listed as T2 EBNA2 348-422 m3 mt) | -TΔS, one-site model (25°C, pH 7.5, peptides 13 injections, polypeptides 19 injections, listed as T2 EBNA2348-412) |
| --- | --- | --- | --- | --- | --- | --- | --- | --- | --- | --- | --- | --- | --- | --- | --- | --- |
| B1 | 8 nM | 136 nM | 21.0 ± 0.95 kcal/mol | -4.62 ± 2.01 kcal/mol | 0.20 ± 0.01 | 0.20 ± 0.08 | -11.1 ± 0.17 kcal/mol | -9.44 ± 0.35 kcal/mol | -32.1 ± 1.12 kcal/mol | -4.82 ± 1.69 kcal/mol |  |  |  |  |  |  |
| B2 | 8 ± 3 nM | 200 ± 26 nM | 11.6 ± 0.31 kcal/mol | 0.47 ± 1.33 kcal/mol | 0.22 ± 0.01 | 0.20 ± 0.00 | -11.0 ± 0.21 kcal/mol | -9.14 ± 0.08 kcal/mol | -22.7 ± 0.29 kcal/mol | -9.62 ± 1.32 kcal/mol |  |  |  |  |  |  |
| B3 |  |  |  |  |  |  |  |  |  |  | 19.5 ± 1.27 kcal/mol | -7.80 ± 0.04 kcal/mol | -27.3 ± 1.23 kcal/mol |  |  |  |
| B4 | 9 nM | 91 nM | 23.1 ± 0.14 kcal/mol | -8.04 ± 0.25 kcal/mol | 0.23 ± 0.01 | 0.21 ± 0.00 | -11.0 ± 0.28 kcal/mol | -9.62 ± 0.16 kcal/mol | -34.1 ± 0.14 kcal/mol |  | 45 kcal/mol | -8.20 ± 0.18 kcal/mol |  | 45.0 ± 1.84 kcal/mol |  |  |
| B5 |  |  |  |  |  |  |  |  |  |  | 17.2 kcal/mol | -8.50 ± 0.07 kcal/mol |  |  | 17.2 ± 0.79 kcal/mol |  |
| B6 | 5 ± 1 nM | 94 ± 28 nM | 20.4 ± 2.24 kcal/mol | -1.95 ± 2.10 kcal/mol | 0.20 ± 0.00 | 0.19 ± 0.01 | -9.60 ± 0.21 kcal/mol | -11.3 ± 0.12 kcal/mol | -31.7 ± 2.14 kcal/mol | -7.65 ± 1.89 kcal/mol |  |  |  |  |  |  |
| B7 |  |  |  |  |  |  |  |  |  |  | 14.4 kcal/mol | -8.08 ± 0.06 kcal/mol |  |  |  | 14.4 ± 2.48 kcal/mol |
